Data published in article PMC5643242 (The FEBS journal, 2017).
Where two headings read alike, the source gives them in different places.

How the values were obtained:
Experiment in all cases: stopped-flow fluorescence
[1] = target: T1, Cdc42 GTPase (residues 1-179), loaded with mantGppNHp (human, UniProt P60953 1-179)
[2] = target: T1, Cdc42 GTPase (residues 1-179), loaded …; remark: listed apart in the source
[3] = target: T1, Cdc42 GTPase (residues 1-179), loaded …; remark: listed apart in the source
[4] = target: T1, Cdc42 GTPase (residues 1-179), loaded …; remark: listed apart in the source
[5] = target: T1, Cdc42 GTPase (residues 1-179), loaded …; remark: listed apart in the source

T1 sequence (P60953 1-179): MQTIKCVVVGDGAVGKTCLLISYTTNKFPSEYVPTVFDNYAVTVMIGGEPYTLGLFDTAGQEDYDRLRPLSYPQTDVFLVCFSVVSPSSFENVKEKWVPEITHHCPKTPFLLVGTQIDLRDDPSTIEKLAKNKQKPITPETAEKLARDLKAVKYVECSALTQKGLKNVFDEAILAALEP

fold decrease of ka at 2 M urea against no urea [1]: 3.4 fold
kon [2]: 1.75e+07 M⁻¹ s⁻¹
kon [3]: 1.63e+07 M⁻¹ s⁻¹
kon [4]: 2.07e+07 M⁻¹ s⁻¹
koff [5]: 4.1 ± 1.7 s⁻¹
kon [5]: 1.2e+07 M⁻¹ s⁻¹
B1: Wiskott-Aldrich Syndrome protein (WASP) GTPase binding domain (GBD) construct, residues 154-322 (domain or fragment, human, UniProt P42768 154-322, looked up)
chain: GDRRQLPPPPTPANEERRGGLPPLPLHPGGDQGGPPVGPLSLGLATVDIQNPDITSSRYRGLPAPGPSPADKKRSGKKKISKADIGAPSGFKHVSHVGWDPQNGFDVNNLDPDLRSLFSRAGISEAQLTDAETSKLIYDFIEDQGGLEAVRQEMRRQEPLPPPPPPSRG
